Measurements as given in publication PMC3844103 (Biochemistry, 2013).
Non-standard residues stand in square brackets, D forms with d. pY = N[C@@H](Cc1ccc(OP(=O)(O)O)cc1)C(=O)O

Molecular target: T1, C-terminal SH2 (cSH2) domain of PLC-γ1 (rat, UniProt P10686 664-766)
T1 sequence (looked up): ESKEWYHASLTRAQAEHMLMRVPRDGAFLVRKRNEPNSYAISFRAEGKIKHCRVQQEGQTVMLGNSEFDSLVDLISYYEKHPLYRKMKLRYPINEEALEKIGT
Assay: crystal structure

B1: pTyr783 peptide of PLC-γ1 (peptide)
peptide: Ac-DYGALYEGRNPGF[pY]VEAN-NH2
SMILES: CC(=O)N[C@@H](CC(=O)O)C(=O)N[C@@H](Cc1ccc(O)cc1)C(=O)NCC(=O)N[C@@H](C)C(=O)N[C@@H](CC(C)C)C(=O)N[C@@H](Cc1ccc(O)cc1)C(=O)N[C@@H](CCC(=O)O)C(=O)NCC(=O)N[C@@H](CCCNC(=N)N)C(=O)N[C@@H](CC(N)=O)C(=O)N1CCC[C@H]1C(=O)NCC(=O)N[C@@H](Cc1ccccc1)C(=O)N[C@@H](Cc1ccc(OP(=O)(O)O)cc1)C(=O)N[C@H](C(=O)N[C@@H](CCC(=O)O)C(=O)N[C@@H](C)C(=O)N[C@@H](CC(N)=O)C(N)=O)C(C)C
Question: Does B1 bind?
Answer: Result: binds
